Experiment [1] deals with DO11.10 scTCR/murine IgG2b fusion molecule (mouse) (UniProt P01867). As to the kind of experiment: sandwich ELISA on supernatant of COS-7 cells co-transfected with both fusions; goat anti-murine kappa capture, anti-murine IgG2b-HRP detection, A450. (In general: ELISA stands for enzyme-linked immunosorbent assay.)
Experiment [2] addresses DO11.10 TCR (endogenous T cell receptor of the DO11.10 T cell hybridoma). As to the kind of experiment: cell-based or functional assay.
Experiment [3] shares this target. Description: cell-based or functional assay. The source holds these as a separate data set.
Experiment [4] deals with DO11.10 scTCR/murine CD3ζ fusion molecule (membrane-bound, on transfected cells) (mouse) (UniProt P24161). As to the kind of experiment: cell-based or functional assay.

Like-named read-outs stand apart in the source and are kept apart here.

UniProt P24161, sequence (P24161 whole entry, the tested form may be a part): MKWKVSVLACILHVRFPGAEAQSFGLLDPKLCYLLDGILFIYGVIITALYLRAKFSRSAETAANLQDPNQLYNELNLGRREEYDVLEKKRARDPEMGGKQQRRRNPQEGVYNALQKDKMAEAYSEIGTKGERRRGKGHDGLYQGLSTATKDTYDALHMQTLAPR
UniProt P01867, sequence (P01867 other isoform, or with tags, fused parts or gaps): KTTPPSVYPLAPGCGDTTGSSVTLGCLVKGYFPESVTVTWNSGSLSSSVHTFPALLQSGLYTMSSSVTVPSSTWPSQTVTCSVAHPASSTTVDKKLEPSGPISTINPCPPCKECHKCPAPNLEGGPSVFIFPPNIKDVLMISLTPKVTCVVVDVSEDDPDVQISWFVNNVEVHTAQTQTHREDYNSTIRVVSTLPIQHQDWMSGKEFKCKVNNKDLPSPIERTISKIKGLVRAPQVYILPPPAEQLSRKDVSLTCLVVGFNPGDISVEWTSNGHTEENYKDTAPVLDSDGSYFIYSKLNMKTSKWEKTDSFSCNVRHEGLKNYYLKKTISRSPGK

For the substance “DO11.10 scTCR/murine kappa fusion molecule”, the absorbance relative to the negative control (fold) in experiment [1] turned out to be 40 fold.

As for “monovalent scIA^d/OVA-BirA complexes (monomer, no avidin) (peptide-MHC)”, in experiment [2], the IL-2 ELISA value; DO11.10 cells; 31 ng complex/well came out at 0.242 A450, the IL-2 ELISA value; DO11.10 cells; 62 ng complex/well stood at 0.398 A450, the IL-2 ELISA value; DO11.10 cells; 125 ng complex/well amounted to 0.513 A450 and the IL-2 ELISA value; DO11.10 cells; 500 ng complex/well is 1.05 A450. The same substance displayed an IL-2 ELISA value; DO11.10 cells; 1000 ng complex/well in experiment [2] of 1.16 A450.

In experiment [2], “multi-valent scIA^d/OVA-BirA complexes (biotinylated scIA^d/OVA-BirA bound to avidin) (from UniProt P02701 25-152) (peptide-MHC)” had an IL-2 ELISA value; DO11.10 cells; 31 ng complex/well of 0.554 A450, an IL-2 ELISA value; DO11.10 cells; 62 ng complex/well of 0.744 A450, an IL-2 ELISA value; DO11.10 cells; 125 ng complex/well of 0.916 A450 and an IL-2 ELISA value; DO11.10 cells; 500 ng complex/well of 1.6 A450. In experiment [2], this substance showed an IL-2 ELISA value; DO11.10 cells; 1000 ng complex/well of 1.86 A450.

In experiment [2], “scIA^d/GD-IgG multimer (scIA^d/GD-Cκ fusion with scIA^d/GD-IgG2b heavy chain fusion) (peptide-MHC)” gave an IL-2 ELISA value; DO11.10 T cells; 12.5 ng complex/well of 0.159 A405, an IL-2 ELISA value; DO11.10 T cells; 25 ng complex/well of 0.166 A405, an IL-2 ELISA value; DO11.10 T cells; 50 ng complex/well of 0.155 A405 and an IL-2 ELISA value; DO11.10 T cells; 100 ng complex/well of 0.166 A405.

Consider “scIA^d/GD-IgM fusion (scIA^d/GD fused to CH2-CH3-CH4 of human IgM heavy chain), multi-valent (from UniProt P01871 106-453) (peptide-MHC)”, for which, in experiment [3], the IL-2 ELISA value; DO11.10 T cells; 1 ng complex/well stood at 0.153 A405, the IL-2 ELISA value; DO11.10 T cells; 3 ng complex/well is 0.14 A405, the IL-2 ELISA value; DO11.10 T cells; 7 ng complex/well is 0.148 A405 and the IL-2 ELISA value; DO11.10 T cells; 15 ng complex/well was 0.14 A405. In experiment [3], this substance returned an IL-2 ELISA value; DO11.10 T cells; 31 ng complex/well of 0.165 A405, an IL-2 ELISA value; DO11.10 T cells; 62 ng complex/well of 0.157 A405, an IL-2 ELISA value; DO11.10 T cells; 125 ng complex/well of 0.18 A405 and an IL-2 ELISA value; DO11.10 T cells; 250 ng complex/well of 0.193 A405. In experiment [4], the IL-2 ELISA value; BWDZ:CD4+ transfectants; 40 ng complex/well was found to be 0.282 A405, the IL-2 ELISA value; BWDZ:CD4+ transfectants; 200 ng complex/well came out at 0.309 A405, the IL-2 ELISA value; BWDZ:CD4+ transfectants; 1000 ng complex/well is 0.375 A405 and the IL-2 ELISA value; DO11.10 scTCR 2B4 transfectants; 1 ng complex/well is 0.196 A405. Besides, in experiment [4], the IL-2 ELISA value; DO11.10 scTCR 2B4 transfectants; 3 ng complex/well was 0.19 A405, the IL-2 ELISA value; DO11.10 scTCR 2B4 transfectants; 7 ng complex/well was 0.213 A405, the IL-2 ELISA value; DO11.10 scTCR 2B4 transfectants; 15 ng complex/well was 0.199 A405 and the IL-2 ELISA value; DO11.10 scTCR 2B4 transfectants; 31 ng complex/well was 0.226 A405. In experiment [4], this substance had an IL-2 ELISA value; DO11.10 scTCR 2B4 transfectants; 62 ng complex/well of 0.224 A405, an IL-2 ELISA value; DO11.10 scTCR 2B4 transfectants; 125 ng complex/well of 0.233 A405 and an IL-2 ELISA value; DO11.10 scTCR 2B4 transfectants; 250 ng complex/well of 0.224 A405. In experiment [2], the IL-2 ELISA value; DO11.10 T cells; 0.3 ng complex/well is 0.189 A405, the IL-2 ELISA value; DO11.10 T cells; 1 ng complex/well was 0.184 A405, the IL-2 ELISA value; DO11.10 T cells; 4 ng complex/well turned out to be 0.179 A405 and the IL-2 ELISA value; DO11.10 T cells; 11 ng complex/well is 0.188 A405. Further, in experiment [2], the IL-2 ELISA value; DO11.10 T cells; 33 ng complex/well is 0.206 A405, the IL-2 ELISA value; DO11.10 T cells; 100 ng complex/well amounted to 0.221 A405 and the IL-2 ELISA value; DO11.10 T cells; 300 ng complex/well was 0.248 A405.
